From patent US20250027068
Substitutions are numbered along the chain they refer to.

B1: PRT-48 (protein)
chain: MANQEIRYSEVTPYHVTSVWTKGVTPPANFTQGEDVFHAPYKANQGWYDINKTFNGGDDLLCGAATAGNMLHWWFDQNKDYIDRYLEEHPEKQKINFNGEQMFDVKEAIDTKNNQTDSKLFEYFKEKAFPYLSTKHLGVFPDRVIDMFINGYRLSLTNHGPTPVKEGSKDPRGGFFDDVFTRGDQSKLLTSRHDFKEKNLKEISDLIKKELKEGKALGLSHTYANVRINHVINLWGADFDSNGNLKAIYVTDSDSNASVGMKKYRVGVNSAGKVAISAKEIKEDNIGAQVLGLFTLSTGQDSWNQTN
B2: PRT-42 (protein)
chain: MANQEIRYSEVTPYHVTSVWTKGVTPPANFTQGEDVFHAPYVANQGWYDITKTFNGKDDLLCGAATAGNMLHWWFDQNKDQIDRYLEEHPEKQKINFNGEQMFDVKEAIDTKNDQLDSKLFEYFKEKAFPYLSTKHLGVFPDLVIDMFINGYRLSLTNHGPTPVKEGSKDPRGGFFDAVFTRGDQSKLLTSRHDFKEKNLKEISDLIKKELTEGKALGLSHTYANVRINHVINLWGADFDSNGNLKAIYVTDSDSNASIGMKKYFVGVNSAGKVAISAKEIKEDNIGAQVLGLFTLSTGQDSWNQTN
B3: PRT-46 (protein)
chain: B2 chain with Q93A, I145L, K263R
B4: PRT-45 (protein)
chain: B2 chain with K57G, D80E, D114S, L116T, I145L, F175I, K201E
B5: PRT-43 (protein)
chain: B2 chain with L116T, F175I, F195L
B6: PRT-44 (protein)
chain: B2 chain with K57G, D114S, L116T, I145L, A178D
B7: PRT-49 (protein)
chain: B2 chain with Q81Y, Q93A, L116T, L143H, A178D, T181G, I259V
B8: PRT-47 (protein)
chain: B2 chain with T51N, K57G, E87K, Q93A, L116T, D117N, I145L, I259V
B9: PRT-535 (protein)
chain: MANQEIRYSGDSEWANKKVWVYGITPPEEKAWFYSTYYLPWKKEYGWYDCNKRNPTADGMMCWAATASNLMHWWIAQNKEYIDLYGDKYKGPDKINFNGEQMFDVKEYIDPLDKPQESDIFQCFIDKAFADLSTKHEAGKGDEGINWFIHGIIPSYPAHGPTPVKLRYPYNPAGYFKDVFPRGDGVVLLGNNGDFKELGKERFNETIKDALANKKGIGLSIGPVNVRSSHVVTMWGAEFDENGDVSYIYMADNNDRWGVGCIRYQIVYVEGGTYTCYKTEIIGSDRPIPINRLVTLELGEEYWKQTNLEHHHHHH
B10: PRT-537 (protein)
chain: B9 chain with G10S, K30G, T66S, M71L, A128S, E143A, Y156S, M234I, V269E, G283P
B11: PRT-569 (protein)
chain: MANQEIRYSKATPSHITSVWTKGVTPPEQFIYNEDVLHAPYIANQGWYDITKTFNGKDDLLCGAATAGNMLHWWFDQNKEQIENYLKKHPEKQKINFNGEQMFDVKEAIDTKDSQTNSALFSYFKDKAFPYLSTKHLGVFPDHVIDMFINGYRLSLTNHGPTPVKEQTKDPRGGIFDAVFTRGDQSKLLTSRHDFKEKTLNEISQLIKQELTEGKALGLSHTYANVRINHVINLWGADFNAEGNLEAIYVTDSDSNASIGMKKYYVGVNSAGKVAISAKEIEGDNIGAQVLGLFTLSTGQDIWQQTNLEHHHHHH
B12: PRT-560 (protein)
chain: MANQEIRYSEETPKTITSVWTKGVTPPTDFIYNEDVLHAPYIANQGWYDITKTFNGKDDLLCGAATAGNMLHWWFDQNKEQIERYLKKHPEKQKINFNGEQMFDVKEAIDTKDSQTDSALFEYFKDKAFPYLSTKHLGVFPDHVIDMFINGYRLSLTNHGPTPVKRQTKDPRGGIFDAVFTRGDQSKLLTSRHDFKEKTLKEISDLIKQELTEGKALGLSHTYANVRINHVINLWGADFDAEGNLEAIYVTDSDSNASIGMKKYYVGVNSAGKVAISAKEIEGDNIGAQVLGLFTLSTGQDIWEQTNLEHHHHHH
B13: PRT-591 (protein)
chain: B12 chain with K14S, Y32Q, E83K, R84N, Q167G, K201N, D240N, E304N
B14: PRT-593 (protein)
chain: B12 chain with K14S, Y32Q, R84N, S114H, Q167G, K201N, D240N, E304N
B15: PRT-50 (protein)
chain: MANQEIRYSEVTPYHVTSVWTKGVTPPANFTQGEDVFHAPYVANQGWYDINKTFNGKDDLLCGAATAGNMLHWWFDQNKEQIERYLKEHPEKGKINFNGEQMFDVKEAIDTKNNQTDSKLFEYFKEKAFPYLSTKHLGVFPDRVLDMFINGYRLSLTNHGPTPVKEGSKDPRGGFFDDVFGRGDQSKLLTSRHDFKEKNLEEISDLIKKELTEGKALGLSHTYANVRINHVINLWGADFDSNGNLKAIYVTDSDSNASVGMKKYFVGVNSAGKVAISAKEIKEDNIGAQVLGLFTLSTGQDSWNQTN

Target: pooled human IgG

| Protein | Enzyme Activity Endpoint Assay: Fab′2 | Enzyme Activity Endpoint Assay: Fc | Enzyme Activity Endpoint Assay: IgG | Enzyme Activity Endpoint Assay: scIgG |
| --- | --- | --- | --- | --- |
| B1 | 0 ng/µL | 5 ng/µL | 141 ng/µL | 0 ng/µL |
| B2 | 0 ng/µL | 54 ng/µL | 26 ng/µL | 53 ng/µL |
| B3 | 20 ng/µL | 101 ng/µL | 15 ng/µL | 39 ng/µL |
| B4 | 3 ng/µL | 76 ng/µL | 8 ng/µL | 67 ng/µL |
| B5 | 23 ng/µL | 89 ng/µL | 13 ng/µL | 32 ng/µL |
| B6 | 3 ng/µL | 78 ng/µL | 14 ng/µL | 60 ng/µL |
| B7 | 30 ng/µL | 96 ng/µL | 18 ng/µL | 40 ng/µL |
| B8 | 0 ng/µL | 5 ng/µL | 132 ng/µL | 0 ng/µL |
| B9 | 6 ng/µL | 0 ng/µL | 1530 ng/µL | 0 ng/µL |
| B10 | 0 ng/µL | 0 ng/µL | 1000 ng/µL | 0 ng/µL |
| B11 | 723 ng/µL | 294 ng/µL | 0 ng/µL | 0 ng/µL |
| B12 | 210 ng/µL | 233 ng/µL | 41 ng/µL | 312 ng/µL |
| B13 | 0 ng/µL | 34 ng/µL | 671 ng/µL | 0 ng/µL |
| B14 | 797 ng/µL | 396 ng/µL | 0 ng/µL | 0 ng/µL |
| B15 | 0 ng/µL | 5 ng/µL | 135 ng/µL | 0 ng/µL |
